Patent US20190092846A1 (Novartis, published 2019)

T1: human recombinant TGF-β2 (human, UniProt P09858 303-414 (pig entry))
T1 construct: also called hTGF-b2; hTGFbeta-2
T1 sequence: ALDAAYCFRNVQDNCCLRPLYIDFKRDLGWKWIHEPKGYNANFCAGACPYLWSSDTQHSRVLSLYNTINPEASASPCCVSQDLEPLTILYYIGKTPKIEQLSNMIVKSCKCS

T2: human TGF-β3 (human, UniProt P10600 301-412)
T2 construct: also called hTGF-b3; hTGFbeta-3
T2 sequence: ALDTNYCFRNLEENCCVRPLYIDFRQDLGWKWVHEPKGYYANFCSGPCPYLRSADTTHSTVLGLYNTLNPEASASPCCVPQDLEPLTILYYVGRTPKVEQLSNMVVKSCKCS

T3: mouse recombinant TGF-β2 (mouse, UniProt P27090 303-414)
T3 construct: mature; also called mTGF-b2; Mouse TGF-β2
T3 sequence (looked up): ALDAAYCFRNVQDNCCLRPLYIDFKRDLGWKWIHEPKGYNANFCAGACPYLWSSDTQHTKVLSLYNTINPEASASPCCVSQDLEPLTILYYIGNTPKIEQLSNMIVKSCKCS

T4: human TGFβ-2 (residues 303-414, SEQ ID NO: 122) (human, UniProt P61812 303-414)
T4 construct: Construct of the crystal structure with the MOR14797 Fab; also called TGFβ-2 dimer (chains A and B)
T4 sequence: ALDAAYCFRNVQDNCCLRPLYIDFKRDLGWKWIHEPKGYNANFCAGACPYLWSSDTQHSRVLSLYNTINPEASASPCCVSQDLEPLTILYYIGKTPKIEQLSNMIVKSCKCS


How the values were obtained:
human recombinant TGF-β2 [1] = molecular target: T1, human recombinant TGF-β2; assay: ratio of the KD values of Table 4
human TGF-β3 [2] = molecular target: T2, human TGF-β3; assay: BiaCORE (surface plasmon resonance)
human recombinant TGF-β2 [3] = molecular target: T1, human recombinant TGF-β2; assay: BiaCORE (surface plasmon resonance)
human TGF-β3 [4] = molecular target: T2, human TGF-β3; assay: cell-based or functional assay
human recombinant TGF-β2 [5] = molecular target: T1, human recombinant TGF-β2; assay: cell-based or functional assay
human TGF-β1 [6] = molecular target: T5, human TGF-β1 (human, UniProt P01137 279-390); assay: cell-based or functional assay
human TGF-β1 [7] = molecular target: T5, human TGF-β1; assay: cell-based or functional assay; remark: listed apart in the source
human TGF-β1 [8] = molecular target: T5, human TGF-β1; assay: not named in the sentence (it points to Table 4)
mouse recombinant TGF-β2 [9] = molecular target: T3, mouse recombinant TGF-β2; assay: BiaCORE (surface plasmon resonance)
human recombinant TGF-β2 [10] = molecular target: T1, human recombinant TGF-β2; assay: conservative reading of the KD value of Table 4
mouse recombinant TGF-β2 [11] = molecular target: T3, mouse recombinant TGF-β2; assay: cell-based or functional assay
human recombinant TGF-β2 [12] = molecular target: T1, human recombinant TGF-β2; assay: conservative reading of the KD value of Table 4; conservative interpretation of the Table 4 KD, not a new measurement
human recombinant TGF-β2 [13] = molecular target: T1, human recombinant TGF-β2; assay: ratio with the conservative KD of 100 fM
[14] = molecular target: T4, human TGFβ-2 (residues 303-414, SEQ ID …); assay: X-ray crystal structure of the complex
Method: As detailed below, the individual components of the complex were produced using separate expression systems and were combined to generate the purified complex. X-ray crystallography was then employed to generate diffraction data for TGFβ-2 bound to the MOR14797 Fab, elucidating the antigen-binding site.
The TGFβ-2-MOR14797 complex was concentrated to 20 mg/ml, followed by centrifugation at 20,000×g for 10 min prior to dispensing crystallization screens. Crystals were grown at 20° C. using a sitting drop vapor diffusion setup. 0.1 μl of the TGFβ-2-MOR14797 complex was mixed with 0.1 μl of a reservoir solution containing 0.1 M HEPES (pH 7.5) and 70% (v/v) MPD, and the drop was equilibrated against 45 μl of the reservoir solution. Crystals were flash-cooled directly in liquid nitrogen and were sent to the Advanced Photon Source (Argonne National Laboratory, USA) for collection of diffraction data at beamline 17-ID. Datasets were processed using autoPROC (version 1.1.6, Global Phasing Ltd.) to a resolution of 2.4 Å in space group P2₁2₁2₁ with cell dimensions a=77.2 Å, b=122.1 Å, c=130.1 Å, α=90°, β=90°, and γ=90°. […] The Rwork and Rfree values are 17.5% and 23.0%, respectively. The RMSD values for the bond lengths and angles were 0.008 Å and 1.054°.

T5 sequence (P01137 279-390 limits assumed): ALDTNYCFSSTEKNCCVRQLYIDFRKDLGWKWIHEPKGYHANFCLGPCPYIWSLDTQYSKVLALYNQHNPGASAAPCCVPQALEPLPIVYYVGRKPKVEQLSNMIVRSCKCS

| fold lower KD for TGFβ2 than for TGFbeta 3 (human recombinant TGF-β2 [1]) [fold] | Kd (human TGF-β3 [2]) [nM] | Kd (human recombinant TGF-β2 [3]) [pM] | RGA (CAGA-12 luc/Smad-2/3 RGA; IC 50 [pM]) (human TGF-β3 [4]) [pM] | RGA (CAGA-12 luc/Smad-2/3 RGA; IC 50 [pM]) (human recombinant TGF-β2 [5]) [pM] | RGA (CAGA-12 luc/Smad-2/3 RGA; IC 50 [pM]) (human TGF-β1 [6]) [pM] | IC50 (read off the curve) (CAGA-12 luciferase reporter gene assay, HEK293T/17) (human TGF-β1 [7]) [nM] | binding result (human TGF-β1 [8]) | Kd (mouse recombinant TGF-β2 [9]) [pM] | Kd (human recombinant TGF-β2 [10]) [pM] | CK (IC 50 [pM]), Skeletal Muscle Cell Differentiation Assay (Creatine Kinase) (mouse recombinant TGF-β2 [11]) [pM] | RGA (CAGA-12 luc/Smad-2/3 RGA; IC 50 [pM]) (mouse recombinant TGF-β2 [11]) [pM] | CK (IC 50 [pM]), Skeletal Muscle Cell Differentiation Assay (Creatine Kinase) (human recombinant TGF-β2 [5]) [pM] | Kd (human recombinant TGF-β2 [12]) [pM] | fold lower KD for TGFβ2 than for TGFbeta 3 (human recombinant TGF-β2 [13]) [fold] | fold lower KD for TGFbeta-2 than for TGFbeta-3 (human recombinant TGF-β2 [1]) [fold] | fold lower KD for TGFβ2 than for TGFbeta-3 (human recombinant TGF-β2 [13]) [fold] | binding result [14] | Binder |
| --- | --- | --- | --- | --- | --- | --- | --- | --- | --- | --- | --- | --- | --- | --- | --- | --- | --- | --- |
| 17 | 0.02 | 117 | 32 | 4370 | 108 | ~0.5 |  |  |  |  |  |  |  |  |  |  |  | 1D11 (antibody, V domains shown) VH: QVQLQQSGPELVRPGASVKLSCKASGYIFITYWMNWVKQRPGQGLEWIGQIFPASGSTNYNEMFEGKATLTVDTSSSTAYMQLSSLTSEDSAVYYCARGDGNYALDAMDYWGQGTSVTVSS VL: DIVLTQSPASLAVSLGQRATISCRASESVDSYGNSFMHWYQQKSGQPPKLLIYLASNLESGVPARFSGSGSRTDFTLTIDPVEADDAATYYCQQNNEDPLTFGAGTKLEIK |
|  | > 1000 | 0.0524 | > 100000 | 94 | > 100000 |  | no binding | 0.00236 | ≤ 0.1 | 800 | 598 | 220 |  |  |  |  |  | MOR14809 (antibody, human IgG1, lambda, V domains shown) VH: QVQLVQSGAEVKKPGESLKISCKGSGYSFTRYWIAWVRQMPGKGLEWMGIIDPGTSDTRYSPSFQGQVTISADKSISTAYLQWSSLKASDTAMYYCARIDKSLILHSAFDYWGQGTLVTVSS VL: SYELTQPLSVSVALGQTARITCSGDNLGGYYAYWYQQKPGQAPVLVIYETNNRPSGIPERFSGSNSGNTATLTISRAQAGDEADYYCASTTQDYLVFVFGGGTKLTVLG |
| > 18000 | 0.0199 | 0.00108 | > 100000 | 78 | > 100000 |  | no binding | 0.00277 |  | 909 | 138 | 1050 | ≤ 0.1 | 200 |  |  |  | MOR14799 (antibody, human IgG1, lambda, V domains shown) VH: QVQLVQSGAEVKKPGESLKISCKGSGYSFTRYYVAWVRQMPGKGLEWMGWIDPGQSNTRYSPSFQGQVTISADKSISTAYLQWSSLKASDTAMYYCARMLAWGWFDYWGQGTLVTVSS VL: SYELTQPLSVSVALGQTARITCSGDNLGGYYAHWYQQKPGQAPVLVIYDKSDRPSGIPERFSGSNSGNTATLTISRAQAGDEADYYCASYDSSLMMVFGGGTKLTVLG |
|  | > 1000 |  | > 100000 | 29 | > 100000 |  | no binding | 0.00109 | ≤ 0.1 | 1200 | 123 | 491 |  |  |  |  |  | MOR14800 (antibody, human IgG1, lambda, V domains shown) VH: QVQLVQSGAEVKKPGESLKISCKGSGYSFTRYYVAWVRQMPGKGLEWMGWIDPGQSNTRYSPSFQGQVTISADKSISTAYLQWSSLKASDTAMYYCARMLAWGWFDYWGQGTLVTVSS VL: SYELTQPLSVSVALGQTARITCSGDNLGGYYAHWYQQKPGQAPVLVIYDTSDRPSGIPERFSGSNSGNTATLTISRAQAGDEADYYCASYDSSLMMVFGGGTKLTVLG |
|  | 0.0705 | 0.97 | > 100000 | 106 | > 100000 |  | no binding |  |  | 629 | 248 | 315 |  |  | 73 |  |  | MOR14805 (antibody, human IgG1, lambda, V domains shown) VH: QVQLVQSGAEVKKPGESLKISCKGSGYSFTRYYVAWVRQMPGKGLEWMGWIDPGTSNTRYSPSFQGQVTISADKSISTAYLQWSSLKASDTAMYYCARMLAWGWFDYWGQGTLVTVSS VL: SYELTQPLSVSVALGQTARITCSGDNLGGYYAHWYQQKPGQAPVLVIYDKSDRPSGIPERFSGSNSGNTATLTISRAQAGDEADYYCASYDSSLMMVFGGGTKLTVLG |
|  | > 1000 |  | > 100000 | 2.8 | > 100000 |  | no binding | 1.89 |  | 3000 | > 100000 | 366 |  |  |  |  |  | MOR14787 (antibody, human IgG1, kappa, V domains shown) VH: QVQLVQSGAEVKKPGSSVKVSCKASGGTFSSYAISWVRQAPGQGLEWMGVIVPKWGHPQYAQKFQGRVTITADESTSTAYMELSSLRSEDTAVYYCAREGDFVVLVLTEHYMGGFDVWGQGTLVTVSS VL: DIQMTQSPSSLSASVGDRVTITCRASQSIDEYLNWYQQKPGKAPKLLIYAGSNLQSGVPSRFSGSGSGTDFTLTISSLQPEDFATYYCLQGYSYPRTFGQGTKVEIKR |
|  | 27.4 | 0.00446 | > 100000 | 8.4 | > 100000 |  | no binding | 0.633 | ≤ 0.1 | 1500 | 329 | 105 |  |  | 6e+06 | 270000 |  | MOR14797 (antibody, human IgG1, kappa, V domains shown, (no LALA)) VH: QVTLRESGPALVKPTQTLTLTCTFSGFSLSTSGMGVGWIRQPPGKALEWLAHIYWNDDKSYSTSLKTRLTISKDTSKNQVVLTMTNMDPVDTATYYCARDFYYSGYFDSWGQGTLVTVSS VL: DIQMTQSPSSLSASVGDRVTITCRASQDISNYLNWYQQKPGKAPKLLIFGASSLQSGVPSRFSGSGSGTDFTLTISSLQPEDFATYYCQQTNTMNTFGQGTKVEIKR |
|  |  |  |  |  |  |  |  |  |  |  |  |  |  |  |  |  | binds | MOR14797 Fab (Fab, V domains shown, also called Fab fragment of MOR14797) VH: QVTLRESGPALVKPTQTLTLTCTFSGFSLSTSGMGVGWIRQPPGKALEWLAHIYWNDDKSYSTSLKTRLTISKDTSKNQVVLTMTNMDPVDTATYYCARDFYYSGYFDSWGQGTLVTVSS VL: DIQMTQSPSSLSASVGDRVTITCRASQDISNYLNWYQQKPGKAPKLLIFGASSLQSGVPSRFSGSGSGTDFTLTISSLQPEDFATYYCQQTNTMNTFGQGTKVEIKR |
